What all share (conditions): protein: recombinant; tags: Nano-His6-TEV tag cleaved
Data set [1] addresses T1, KLF4 DBD (human, UniProt O43474 418-513). As to the kind of experiment: EMSA; Zn2+; 1 uM DNA, 0-6 uM DBD; 1:1, 2:1 and 3:1 complexes, 3:1 needs 6 equivalents; EMSA: 20 mM Tris pH 8, 50 mM NaCl, 5% glycerol, 0.01 mg/ml BSA, 0.1 mM DTT, 0.05 mM TCEP; gel run at 4 C; protein refolded with 3.3 eq ZnSO4.
Data set [2] addresses T1, KLF4 DBD. As to the kind of experiment: EMSA; Zn2+; DBD up to 15 uM; EMSA: 20 mM Tris pH 8, 50 mM NaCl, 5% glycerol, 0.01 mg/ml BSA, 0.1 mM DTT, 0.05 mM TCEP; gel run at 4 C; protein refolded with 3.3 eq ZnSO4. In general terms: A gel shift assay detects complexes by their altered migration in electrophoresis.
Data set [3] has as its target T1, KLF4 DBD. As to the kind of experiment: EMSA; Zn2+; 1 uM DNA, 0-6 uM DBD; 3:1 complex at 3 equivalents, tighter than NANK; EMSA: 20 mM Tris pH 8, 50 mM NaCl, 5% glycerol, 0.01 mg/ml BSA, 0.1 mM DTT, 0.05 mM TCEP; gel run at 4 C; protein refolded with 3.3 eq ZnSO4.
Data set [4] deals with T1, KLF4 DBD. The data set can be described thus: X-ray crystallography; Zn2+; 2.14 A, 1:1 complex; EMSA: 20 mM Tris pH 8, 50 mM NaCl, 5% glycerol, 0.01 mg/ml BSA, 0.1 mM DTT, 0.05 mM TCEP; gel run at 4 C; protein refolded with 3.3 eq ZnSO4.

T1 sequence (O43474 418-513): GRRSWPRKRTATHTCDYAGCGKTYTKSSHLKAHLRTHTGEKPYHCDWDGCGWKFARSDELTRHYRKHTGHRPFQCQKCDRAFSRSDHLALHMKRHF

B1: NANK (dsDNA)
DNA 1: AGGGGGTGTGCCCGCCAGGAGGGGTGGGTC
DNA 2: GACCCACCCCTCCTGGCGGGCACACCCCCT
Consider B1, for which the binding result with KLF4 DBD [1] is “binds”.

B2: NKB (dsDNA)
DNA 1: TGCCCGCCAGGA
DNA 2: TCCTGGCGGGCA
As to B2, the binding result in the data set with KLF4 DBD [2] is “binds”.

B3: NKC (dsDNA)
DNA 1: GAGGGGTGGGTC
DNA 2: GACCCACCCCTC
For B3, the binding result with KLF4 DBD [2] is “binds”.

B4: NANKm (dsDNA)
DNA 1: B1 DNA 1
DNA 2: B1 DNA 2
modifications: 5-methyl-dC at position 13 of strand 1 (CpG in KLFB); complement strand methylation not stated
Consider B4, for which the binding result in the data set with KLF4 DBD [3] was “binds”.

B5: NKA (dsDNA)
DNA 1: AGGGGGTGTGCC
DNA 2: GGCACACCCCCT
With B5, in the data set with KLF4 DBD [4], the binding result is listed as “binds”.

The record behind these values is paper PMC8458463, “Liquid condensation of reprogramming factor KLF4 with DNA provides a mechanism for chromatin organization”.
